The supplement of paper PMC5998384

Experiments:
HeLa Kyoto [1] = assay: thermal stability score vs G1/S (z-score of summed log2 fold changes over temperatures); higher = more thermally stable than in G1/S
HeLa Kyoto [2] = assay: solubility in G1/S (NP-40 vs SDS abundance) (log2 ratio); higher = more soluble; conditions: cell cycle stage: G1/S
HeLa Kyoto [3] = assay: solubility change mitosis vs G1/S (difference of NP-40 vs SDS log2 ratios) (log2 ratio difference); higher = more soluble in mitosis
HeLa Kyoto [4] = assay: melting temperature (median over replicates), in situ; higher = more thermally stable
[5] = cell cycle stage: early G1 (4.5 h after nocodazole release)
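Wherever melting temperature (median over replicates), in situ is given: HeLa Kyoto cells synchronized by double thymidine or nocodazole block, proteins quantified by TMT10plex mass spectrometry, three independent biological replicates.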
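Wherever solubility change mitosis vs G1/S (difference of NP-40 vs SDS log2 ratios) is given: synchronized HeLa Kyoto cells (double thymidine block for G1/S, nocodazole release for mitosis), protein amounts in NP-40 versus SDS lysates quantified by mass spectrometry, three biological replicates.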
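Wherever solubility in G1/S (NP-40 vs SDS abundance) is given: HeLa Kyoto cells arrested at G1/S by double thymidine block, proteins quantified by TMT10plex mass spectrometry in mild NP-40 versus SDS extracts, three biological replicates.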
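Wherever thermal stability score vs G1/S (z-score of summed log2 fold changes over temperatures) is given: synchronized HeLa Kyoto cells, proteins quantified by TMT10plex mass spectrometry, three biological replicates, mitosis taken 0.5 h after nocodazole release, G1/S directly after double thymidine block.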

Substance	thermal stability score (HeLa Kyoto [1]; [5])	thermal stability score (HeLa Kyoto [1]; cell cycle stage: mitosis)	solubility in G1/S (log2) (HeLa Kyoto [2])	solubility change mitosis (log2) (HeLa Kyoto [3])	melting temperature (HeLa Kyoto [4]; cell cycle stage: G1/S) [°C]	melting temperature (HeLa Kyoto [4]; cell cycle stage: mitosis) [°C]
MESMLNKLKSTVTKVTADVTSAVMGNPVTREFDVGRHIASGGNGLAWKIFNGTKKSTKQEVAVFVFDKKLIDKYQKFEKDQIIDSLKRGVQQLTRLRHPRLLTVQHPLEESRDCLAFCTEPVFASLANVLGNWENLPSPISPDIKDYKLYDVETKYGLLQVSEGLSFLHSSVKMVHGNITPENIILNKSGAWKIMGFDFCVSSTNPSEQEPKFPCKEWDPNLPSLCLPNPEYLAPEYILSVSCETASDMYSLGTVMYAVFNKGKPIFEVNKQDIYKSFSRQLDQLSRLGSSSLTNIPEEVREHVKLLLNVTPTVRPDADQMTKIPFFDDVGAVTLQYFDTLFQRDNLQKSQFFKGLPKVLPKLPKRVIVQRILPCLTSEFVNPDMVPFVLPNVLLIAEECTKEEYVKLILPELGPVFKQQEPIQILLIFLQKMDLLLTKTPPDEIKNSVLPMVYRALEAPSIQIQELCLNIIPTFANLIDYPSMKNALIPRIKNACLQTSSLAVRVNSLVCLGKILEYLDKWFVLDDILPFLQQIPSKEPAVLMGILGIYKCTFTHKKLGITKEQLAGKVLPHLIPLSIENNLNLNQFNSFISVIKEMLNRLESEHKTKLEQLHIMQEQQKSLDIGNQMNVSEEMKVTNIGNQQIDKVFNNIGADLLTGSESENKEDGLQNKHKRASLTLEEKQKLAKEQEQAQKLKSQQPLKPQVHTPVATVKQTKDLTDTLMDNMSSLTSLSVSTPKSSASSTFTSVPSMGIGMMFSTPTDNTKRNLTNGLNANMGFQTSGFNMPVNTNQNFYSSPSTVGVTKMTLGTPPTLPNFNALSVPPAGAKQTQQRPTDMSALNNLFGPQKPKVSMNQLSQQKPNQWLNQFVPPQGSPTMGSSVMGTQMNVIGQSAFGMQGNPFFNPQNFAQPPTTMTNSSSASNDLKDLFG [SCYL2]	0.219	0.842	0.129	-0.174	52.9	53.5
MAGPGPGPGDPDEQYDFLFKLVLVGDASVGKTCVVQRFKTGAFSERQGSTIGVDFTMKTLEIQGKRVKLQIWDTAGQERFRTITQSYYRSANGAILAYDITKRSSFLSVPHWIEDVRKYAGSNIVQLLIGNKSDLSELREVSLAEAQSLAEHYDILCAIETSAKDSSNVEEAFLRVATELIMRHGGPLFSEKSPDHIQLNSKDIGEGWGCGC [RAB43]	-0.0567	0.366	-0.224	0.296	55.1	54.6
MAGYLRVVRSLCRASGSRPAWAPAALTAPTSQEQPRRHYADKRIKVAKPVVEMDGDEMTRIIWQFIKEKLILPHVDIQLKYFDLGLPNRDQTDDQVTIDSALATQKYSVAVKCATITPDEARVEEFKLKKMWKSPNGTIRNILGGTVFREPIICKNIPRLVPGWTKPITIGRHAHGDQYKATDFVADRAGTFKMVFTPKDGSGVKEWEVYNFPAGGVGMGMYNTDESISGFAHSCFQYAIQKKWPLYMSTKNTILKAYDGRFKDIFQEIFDKHYKTDFDKNKIWYEHRLIDDMVAQVLKSSGGFVWACKNYDGDVQSDILAQGFGSLGLMTSVLVCPDGKTIEAEAAHGTVTRHYREHQKGRPTSTNPIASIFAWTRGLEHRGKLDGNQDLIRFAQMLEKVCVETVESGAMTKDLAGCIHGLSNVKLNEHFLNTTDFLDTIKSNLDRALGRQ [IDH2]	-0.161	0.659	0.137	-0.113	53.7	54.1
MAWVLKMDEVIESGLVHDFDASLSGIGQELGAGAYSMSDVLALPIFKQEDSSLPLDGETEHPPFQYVMCAATSPAVKLHDETLTYLNQGQSYEIRMLDNRKMGDMPEINGKLVKSIIRVVFHDRRLQYTEHQQLEGWKWNRPGDRLLDLDIPMSVGIIDTRTNPSQLNAVEFLWDPAKRTSAFIQVHCISTEFTPRKHGGEKGVPFRIQVDTFKQNENGEYTDHLHSASCQIKVFKPKGADRKQKTDREKMEKRTAHEKEKYQPSYDTTILTEMRLEPIIEDAVEHEQKKSSKRTLPADYGDSLAKRGSCSPWPDAPTAYVNNSPSPAPTFTSPQQSTCSVPDSNSSSPNHQGDGASQTSGEQIQPSATIQETQQWLLKNRFSSYTRLFSNFSGADLLKLTKEDLVQICGAADGIRLYNSLKSRSVRPRLTIYVCREQPSSTVLQGQQQAASSASENGSGAPYVYHAIYLEEMIASEVARKLALVFNIPLHQINQVYRQGPTGIHILVSDQMVQNFQDESCFLFSTVKAESSDGIHIILK [UBP1]	-0.25	-0.0933	0.06	0.0235	50.5	48.3
MAAAGWRDGSGQEKYRLVVVGGGGVGKSALTIQFIQSYFVTDYDPTIEDSYTKQCVIDDRAARLDILDTAGQEEFGAMREQYMRTGEGFLLVFSVTDRGSFEEIYKFQRQILRVKDRDEFPMILIGNKADLDHQRQVTQEEGQQLARQLKVTYMEASAKIRMNVDQAFHELVRVIRKFQEQECPPSPEPTRKEKDKKGCHCVIF [RRAS2]	1.24	1.12	-0.172	-0.0849	55.4	55.3
ZCCHC6	1.03	2.02	-0.226	0.0648	49.9	49.3
MQDDSIEASTSISQLLRESYLAETRHRGNNERSRAEPSSNPCHFGSPSGAAEGGGGQDDLPDLSAFLSQEELDESVNLARLAINYDPLEKADETQARKRLSPDQMKHSPNLSFEPNFCQDNPRSPTSSKESPQEAKRPQYCSETQSKKVFLNKAADFIEELSSLFKSHSSKRIRPRACKNHKSKLESQNKVMQENSSSFSDLSERRERSSVPIPIPADTRDNEVNHALEQQEAKRREAEQAASEAAGGDTTPGSSPSSLYYEEPLGQPPRFTQKLRSREVPEGTRVQLDCIVVGIPPPQVRWYCEGKELENSPDIHIVQAGNLHSLTIAEAFEEDTGRYSCFASNIYGTDSTSAEIYIEGVSSSDSEGDPNKEEMNRIQKPNEVSSPPTTSAVIPPAVPQAQHLVAQPRVATIQQCQSPTNYLQGLDGKPIIAAPVFTKMLQNLSASEGQLVVFECRVKGAPSPKVEWYREGTLIEDSPDFRILQKKPRSMAEPEEICTLVIAEVFAEDSGCFTCTASNKYGTVSSIAQLHVRGNEDLSNNGSLHSANSTTNLAAIEPQPSPPHSEPPSVEQPPKPKLEGVLVNHNEPRSSSRIGLRVHFNLPEDDKGSEASSEAGVVTTRQTRPDSFQERFNGQATKTPEPSSPVKEPPPVLAKPKLDSTQLQQLHNQVLLEQHQLQNPPPSSPKEFPFSMTVLNSNAPPAVTTSSKQVKAPSSQTFSLARPKYFFPSTNTTAATVAPSSSPVFTLSSTPQTIQRTVSKESLLVSHPSVQTKSPGGLSIQNEPLPPGPTEPTPPPFTFSIPSGNQFQPRCVSPIPVSPTSRIQNPVAFLSSVLPSLPAIPPTNAMGLPRSAPSMPSQGLAKKNTKSPQPVNDDNIRETKNAVIRDLGKKITFSDVRPNQQEYKISSFEQRLMNEIEFRLERTPVDESDDEIQHDEIPTGKCIAPIFDKRLKHFRVTEGSPVTFTCKIVGIPVPKVYWFKDGKQISKRNEHCKMRREGDGTCSLHIESTTSDDDGNYTIMAANPQGRISCSGHLMVQSLPIRSRLTSAGQSHRGRSRVQERDKEPLQERFFRPHFLQAPGDMVAHEGRLCRLDCKVSGLPPPELTWLLNGQPVLPDASHKMLVRETGVHSLLIDPLTQRDAGTYKCIATNKTGQNSFSLELSVVAKEVKKAPVILEKLQNCGVPEGHPVRLECRVIGMPPPVFYWKKDNETIPCTRERISMHQDTTGYACLLIQPAKKSDAGWYTLSAKNEAGIVSCTARLDIYAQWHHQIPPPMSVRPSGSRYGSLTSKGLDIFSAFSSMESTMVYSCSSRSVVESDEL [MYPN]	-0.0918	3.44	0.0329	-0.108	47.6	48.9
MVHFCGLLTLHREPVPLKSISVSVNIYEFVAGVSATLNYENEEKVPLEAFFVFPMDEDSAVYSFEALVDGKKIVAELQDKMKARTNYEKAISQGHQAFLLEGDSSSRDVFSCNVGNLQPGSKAAVTLKYVQELPLEADGALRFVLPAVLNPRYQFSGSSKDSCLNVKTPIVPVEDLPYTLSMVATIDSQHGIEKVQSNCPLSPTEYLGEDKTSAQVSLAAGHKFDRDVELLIYYNEVHTPSVVLEMGMPNMKPGHLMGDPSAMVSFYPNIPEDQPSNTCGEFIFLMDRSGSMQSPMSSQDTSQLRIQAAKETLILLLKSLPIGCYFNIYGFGSSYEACFPESVKYTQQTMEEALGRVKLMQADLGGTEILAPLQNIYRGPSIPGHPLQLFVFTDGEVTDTFSVIKEVRINRQKHRCFSFGIGEGTSTSLIKGIARASGGTSEFITGKDRMQSKALRTLKRSLQPVVEDVSLSWHLPPGLSAKMLSPEQTVIFRGQRLISYAQLTGRMPAAETTGEVCLKYTLQGKTFEDKVTFPLQPKPDVNLTIHRLAAKSLLQTKDMGLRETPASDKKDALNLSLESGVISSFTAFIAINKELNKPVQGPLAHRDVPRPILLGASAPLKIKCQSGFRKALHSDRPPSASQPRGELMCYKAKTFQMDDYSLCGLISHKDQHSPGFGENHLVQLIYHQNANGSWDLNEDLAKILGMSLEEIMAAQPAELVDSSGWATILAVIWLHSNGKDLKCEWELLERKAVAWMRAHAGSTMPSVVKAAITFLKSSVDPAIFAF [VWA5A]	-0.428	-0.133	0.137	-0.132	52.3	52.2
MALPIIVKWGGQEYSVTTLSEDDTVLDLKQFLKTLTGVLPERQKLLGLKVKGKPAENDVKLGALKLKPNTKIMMMGTREESLEDVLGPPPDNDDVVNDFDIEDEVVEVENREENLLKISRRVKEYKVEILNPPREGKKLLVLDVDYTLFDHRSCAETGVELMRPYLHEFLTSAYEDYDIVIWSATNMKWIEAKMKELGVSTNANYKITFMLDSAAMITVHTPRRGLIDVKPLGVIWGKFSEFYSKKNTIMFDDIGRNFLMNPQNGLKIRPFMKAHLNRDKDKELLKLTQYLKEIAKLDDFLDLNHKYWERYLSKKQGQ [UBLCP1]	0.941	2.39	0.159	-0.142	49.5	50
MAECGASGSGSSGDSLDKSITLPPDEIFRNLENAKRFAIDIGGSLTKLAYYSTVQHKVAKVRSFDHSGKDTEREHEPPYEISVQEEITARLHFIKFENTYIEACLDFIKDHLVNTETKVIQATGGGAYKFKDLIEEKLRLKVDKEDVMTCLIKGCNFVLKNIPHEAFVYQKDSDPEFRFQTNHPHIFPYLLVNIGSGVSIVKVETEDRFEWVGGSSIGGGTFWGLGALLTKTKKFDELLHLASRGQHSNVDMLVRDVYGGAHQTLGLSGNLIASSFGKSATADQEFSKEDMAKSLLHMISNDIGQLACLHARLHSLDRVYFGGFFIRGHPVTMRTITYSINFFSKGEVQALFLRHEGYLGAIGAFLKGAEQDNPNQYSWGENYAGSSGLMSASPELGPAQRARSGTFDLLEMDRLERPLVDLPLLLDPPSYVPDTVDLTDDALARKYWLTCFEEALDGVVKRAVASQPDSVDAAERAEKFRQKYWNKLQTLRQQPFAYGTLTVRSLLDTREHCLNEFNFPDPYSKVKQRENGVALRCFPGVVRSLDALGWEERQLALVKGLLAGNVFDWGAKAVSAVLESDPYFGFEEAKRKLQERPWLVDSYSEWLQRLKGPPHKCALIFADNSGIDIILGVFPFVRELLLRGTEVILACNSGPALNDVTHSESLIVAERIAGMDPVVHSALQEERLLLVQTGSSSPCLDLSRLDKGLAALVRERGADLVVIEGMGRAVHTNYHAALRCESLKLAVIKNAWLAERLGGRLFSVIFKYEVPAE [PANK4]	0.0566	-0.284	-0.125	-0.0425	52	51.7
MEGNRDEAEKCVEIAREALNAGNREKAQRFLQKAEKLYPLPSARALLEIIMKNGSTAGNSPHCRKPSGSGDQSKPNCTKDSTSGSGEGGKGYTKDQVDGVLSINKCKNYYEVLGVTKDAGDEDLKKAYRKLALKFHPDKNHAPGATDAFKKIGNAYAVLSNPEKRKQYDLTGNEEQACNHQNNGRFNFHRGCEADITPEDLFNIFFGGGFPSGSVHSFSNGRAGYSQQHQHRHSGHEREEERGDGGFSVFIQLMPIIVLILVSLLSQLMVSNPPYSLYPRSGTGQTIKMQTENLGVVYYVNKDFKNEYKGMLLQKVEKSVEEDYVTNIRNNCWKERQQKTDMQYAAKVYRDDRLRRKADALSMDNCKELERLTSLYKGG [DNAJB14]	-1.51	0.131	0.511	-0.15	51.3	51.9
